Laboratory results: PMC6555819, “Comprehensive study of nuclear receptor DNA binding provides a revised framework for understanding receptor specificity”

B1: NRC3_wobSeed26_DR1_A23G_o1 (dsDNA)
DNA 1: GCTCTAGTTGGTCAAAGGTCACGCACTCGAAATGCGGCGATTGACAGCGTAGAATGAAGG
DNA 2: CCTTCATTCTACGCTGTCAATCGCCGCATTTCGAGTGCGTGACCTTTGACCAACTAGAGC
B2: NRC3_wobSeed5_DR0_C8G_o1 (dsDNA)
DNA 1: GCCCTTAGGGGTCAAGGTTATAGCACGGGTGGTACGGCGATTGACAGCGTAGAATGAAGG
DNA 2: CCTTCATTCTACGCTGTCAATCGCCGTACCACCCGTGCTATAACCTTGACCCCTAAGGGC
B3: NRC3_wobSeed53_DR2_T21C_o1 (dsDNA)
DNA 1: GCCCTTACGGGTCACGAGGTCATAGCACGACGAGCGGCGATTGACAGCGTAGAATGAAGG
DNA 2: CCTTCATTCTACGCTGTCAATCGCCGCTCGTCGTGCTATGACCTCGTGACCCGTAAGGGC
B4: NRC3_wobSeed72_DR2_C25G_o1 (dsDNA)
DNA 1: GCTCGAGTAGGTTACGGGGGCATTGAGGGATGAAGAGCGATTGACAGCGTAGAATGAAGG
DNA 2: CCTTCATTCTACGCTGTCAATCGCTCTTCATCCCTCAATGCCCCCGTAACCTACTCGAGC
B5: NRC3_wobSeed99_DR4_T22G_o1 (dsDNA)
DNA 1: GCTCTCGGAGGACACGAAAGGGCAGAGCTCGACATCGCGATTGACAGCGTAGAATGAAGG
DNA 2: CCTTCATTCTACGCTGTCAATCGCGATGTCGAGCTCTGCCCTTTCGTGTCCTCCGAGAGC
B6: NRC3_wobSeed58_DR2_G14A_o1 (dsDNA)
DNA 1: GCATCGAAAGGTCATGAGGTGAGTATACAGAAAGGCGCGATTGACAGCGTAGAATGAAGG
DNA 2: CCTTCATTCTACGCTGTCAATCGCGCCTTTCTGTATACTCACCTCATGACCTTTCGATGC
B7: NRC3_random_hg19_186_o1 (dsDNA)
DNA 1: GCTTTCGTTACTGTAGCCTTGTAGTATAGTTTGAAGGCGATTGACAGCGTAGAATGAAGG
DNA 2: CCTTCATTCTACGCTGTCAATCGCCTTCAAACTATACTACAAGGCTACAGTAACGAAAGC
B8: NRC3_random_hg19_33_o1 (dsDNA)
DNA 1: GCATCTGCATAGAGCTAGAGCTATTGATTCAAAGAGGCGATTGACAGCGTAGAATGAAGG
DNA 2: CCTTCATTCTACGCTGTCAATCGCCTCTTTGAATCAATAGCTCTAGCTCTATGCAGATGC
B9: NRC3_wobSeed18_DR0_A8G_o1 (dsDNA)
DNA 1: GCGATACGGGGTCAAGGCCAGAGTACGCGTATTGATGCGATTGACAGCGTAGAATGAAGG
DNA 2: CCTTCATTCTACGCTGTCAATCGCATCAATACGCGTACTCTGGCCTTGACCCCGTATCGC
B10: NRC3_wobSeed97_DR4_C7A_o1 (dsDNA)
DNA 1: GCCAAAATAGGTCACGAAAGGTCAAAGTCGAATGACGCGATTGACAGCGTAGAATGAAGG
DNA 2: CCTTCATTCTACGCTGTCAATCGCGTCATTCGACTTTGACCTTTCGTGACCTATTTTGGC
B11: NRC3_wobSeed29_DR1_C8A_o1 (dsDNA)
DNA 1: GCGCTTAAGGGTCAAAGGTTATAGCATGAATAGAATGCGATTGACAGCGTAGAATGAAGG
DNA 2: CCTTCATTCTACGCTGTCAATCGCATTCTATTCATGCTATAACCTTTGACCCTTAAGCGC
B12: NRC3_random_hg19_341_o1 (dsDNA)
DNA 1: GCCCCAGATGACGGGTTGATATGGGCAGCAAACCGCGCGATTGACAGCGTAGAATGAAGG
DNA 2: CCTTCATTCTACGCTGTCAATCGCGCGGTTTGCTGCCCATATCAACCCGTCATCTGGGGC
B13: NRC3_wobSeed124_DR5_C12T_o1 (dsDNA)
DNA 1: GCCCTACTGGGTCATTCAGAGGTCATTGATCATATGGCGATTGACAGCGTAGAATGAAGG
DNA 2: CCTTCATTCTACGCTGTCAATCGCCATATGATCAATGACCTCTGAATGACCCAGTAGGGC
B14: NRC3_random_hg19_64_o1 (dsDNA)
DNA 1: GCAATCCAATTGGAGGTGCACTCGTCTAAGTGGTCCGCGATTGACAGCGTAGAATGAAGG
DNA 2: CCTTCATTCTACGCTGTCAATCGCGGACCACTTAGACGAGTGCACCTCCAATTGGATTGC
B15: NRC3_wobSeed41_DR1_A15G_o1 (dsDNA)
DNA 1: GCATATGTAGGTTAGGGGTCATTCAGGTTGGTTCGCGCGATTGACAGCGTAGAATGAAGG
DNA 2: CCTTCATTCTACGCTGTCAATCGCGCGAACCAACCTGAATGACCCCTAACCTACATATGC
B16: NRC3_wobSeed89_DR3_G16A_o1 (dsDNA)
DNA 1: GCCTATGTAGGTTAAAGGGGTCATTCAGTTTGAAAGGCGATTGACAGCGTAGAATGAAGG
DNA 2: CCTTCATTCTACGCTGTCAATCGCCTTTCAAACTGAATGACCCCTTTAACCTACATAGGC
B17: NRC3_wobSeed85_DR3_G15T_o1 (dsDNA)
DNA 1: GCCGTCCAAGGTCATAGAGGTCAGTGAATGCCGAGTGCGATTGACAGCGTAGAATGAAGG
DNA 2: CCTTCATTCTACGCTGTCAATCGCACTCGGCATTCACTGACCTCTATGACCTTGGACGGC
B18: NRC3_random_hg19_391_o1 (dsDNA)
DNA 1: GCTAGATATGAGTCTGGCTTGCTGCTATCTACTTCAGCGATTGACAGCGTAGAATGAAGG
DNA 2: CCTTCATTCTACGCTGTCAATCGCTGAAGTAGATAGCAGCAAGCCAGACTCATATCTAGC
B19: NRC3_random_hg19_58_o1 (dsDNA)
DNA 1: GCAAGACTCCTGGCTCTGATTCTAAACTAAACATAGGCGATTGACAGCGTAGAATGAAGG
DNA 2: CCTTCATTCTACGCTGTCAATCGCCTATGTTTAGTTTAGAATCAGAGCCAGGAGTCTTGC

Assays:
LXRb:RXRa = LXRb:RXRa (Homo sapiens, UniProt P55055;P19793 full;full); assay: no ligand; PBM; 270 nM : 90 nM RXRa; PBS pH 7.4, 2% milk, 0.02% Triton X-100, 1 mM DTT, BSA, 0.4 mg/ml salmon testes DNA; conditions: tags: His kept;His cleaved; copies: 1;1; label: surface-attached array probe
In short: (§1)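 Custom Agilent 4×180K protein-binding microarrays carried double-stranded probes. Their 34-nt variable regions held direct-repeat seeds, single-nucleotide variants, half-site ablations and random human genomic background sequences. Arrays were incubated 1 h with ligand-free nuclear receptor dimers in PBS pH 7.4, 2% milk, 0.02% Triton X-100, 1 mM DTT, 0.2 mg/mL BSA and 0.4 mg/ml salmon testes DNA. Antibodies against each partner (one per run) detected binding, and scanned fluorescence was regression-normalized. Binding z-scores use random background probes as reference.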

RARa:RXRa = RARa:RXRa (Homo sapiens, UniProt P10276;P19793 full;full); assay: as above; conditions: tags: His kept;His cleaved; copies: 1;1; label: surface-attached array probe
In short: as §1

RARb:RXRa = RARb:RXRa (Homo sapiens, UniProt P10826;P19793 full;full); assay: as above; conditions: tags: His kept;His cleaved; copies: 1;1; label: surface-attached array probe
In short: as §1

PXR:RXRa = PXR:RXRa (Homo sapiens, UniProt O75469;P19793 full;full); assay: as above; conditions: tags: His kept;His cleaved; copies: 1;1; label: surface-attached array probe
In short: as §1

RARg:RXRa = RARg:RXRa (Homo sapiens, UniProt P13631;P19793 full;full); assay: as above; conditions: tags: His kept;His cleaved; copies: 1;1; label: surface-attached array probe
In short: as §1

RXRa = RXRa (Homo sapiens, UniProt P19793); assay: no ligand; PBM; 180 nM; PBS pH 7.4, 2% milk, 0.02% Triton X-100, 1 mM DTT, BSA, 0.4 mg/ml salmon testes DNA; conditions: tags: His cleaved; chain copies: 2; label: surface-attached array probe
LXRa:RXRa = LXRa:RXRa (Homo sapiens, UniProt Q13133;P19793 full;full); assay: no ligand; PBM; 270 nM : 90 nM RXRa; PBS pH 7.4, 2% milk, 0.02% Triton X-100, 1 mM DTT, BSA, 0.4 mg/ml salmon testes DNA; conditions: tags: His kept;His cleaved; copies: 1;1; label: surface-attached array probe
In short: as §1

PPARa:RXRa = PPARa:RXRa (Homo sapiens, UniProt Q07869;P19793 full;full); assay: as above; conditions: tags: GST kept;His cleaved; copies: 1;1; label: surface-attached array probe
In short: as §1

FXR:RXRa = FXR:RXRa (Homo sapiens, UniProt Q96RI1;P19793 full;full); assay: as above; conditions: tags: His kept;His cleaved; copies: 1;1; label: surface-attached array probe
In short: as §1

VDR:RXRa = VDR:RXRa (Homo sapiens, UniProt P11473;P19793 full;full); assay: as above; conditions: tags: His kept;His cleaved; copies: 1;1; label: surface-attached array probe
In short: as §1

Chain of RARa:RXRa (P10276 whole entry, chain 1 of 2): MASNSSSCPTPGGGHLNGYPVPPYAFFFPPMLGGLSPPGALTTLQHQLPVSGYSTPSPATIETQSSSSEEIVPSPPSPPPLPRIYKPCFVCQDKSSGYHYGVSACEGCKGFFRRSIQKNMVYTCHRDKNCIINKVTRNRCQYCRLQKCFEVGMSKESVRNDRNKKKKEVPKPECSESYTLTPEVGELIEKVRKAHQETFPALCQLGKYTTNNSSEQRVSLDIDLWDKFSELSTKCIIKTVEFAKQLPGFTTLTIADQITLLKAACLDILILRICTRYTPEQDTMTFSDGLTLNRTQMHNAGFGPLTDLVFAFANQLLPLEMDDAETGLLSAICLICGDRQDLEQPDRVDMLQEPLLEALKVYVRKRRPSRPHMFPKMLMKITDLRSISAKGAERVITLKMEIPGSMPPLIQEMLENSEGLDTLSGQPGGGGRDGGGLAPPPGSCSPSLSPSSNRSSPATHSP
Chain of RARa:RXRa (P19793 whole entry, chain 2 of 2): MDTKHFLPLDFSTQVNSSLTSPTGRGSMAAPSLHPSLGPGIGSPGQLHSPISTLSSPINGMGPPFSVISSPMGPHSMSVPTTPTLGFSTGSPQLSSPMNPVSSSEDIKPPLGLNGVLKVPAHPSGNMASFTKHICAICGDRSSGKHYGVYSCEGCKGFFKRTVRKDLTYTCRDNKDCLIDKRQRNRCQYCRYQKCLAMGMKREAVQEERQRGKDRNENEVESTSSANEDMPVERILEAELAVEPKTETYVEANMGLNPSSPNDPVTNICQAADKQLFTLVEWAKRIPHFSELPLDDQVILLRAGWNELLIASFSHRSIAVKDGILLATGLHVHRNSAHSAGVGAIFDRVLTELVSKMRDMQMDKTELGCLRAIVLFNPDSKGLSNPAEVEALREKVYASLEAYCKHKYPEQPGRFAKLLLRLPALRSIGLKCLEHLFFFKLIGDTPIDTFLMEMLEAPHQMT
Chain of RXRa (P19793 whole entry): as the sequence (P19793 whole entry, chain 2 of 2) above
Chain of FXR:RXRa (Q96RI1 whole entry, chain 1 of 2): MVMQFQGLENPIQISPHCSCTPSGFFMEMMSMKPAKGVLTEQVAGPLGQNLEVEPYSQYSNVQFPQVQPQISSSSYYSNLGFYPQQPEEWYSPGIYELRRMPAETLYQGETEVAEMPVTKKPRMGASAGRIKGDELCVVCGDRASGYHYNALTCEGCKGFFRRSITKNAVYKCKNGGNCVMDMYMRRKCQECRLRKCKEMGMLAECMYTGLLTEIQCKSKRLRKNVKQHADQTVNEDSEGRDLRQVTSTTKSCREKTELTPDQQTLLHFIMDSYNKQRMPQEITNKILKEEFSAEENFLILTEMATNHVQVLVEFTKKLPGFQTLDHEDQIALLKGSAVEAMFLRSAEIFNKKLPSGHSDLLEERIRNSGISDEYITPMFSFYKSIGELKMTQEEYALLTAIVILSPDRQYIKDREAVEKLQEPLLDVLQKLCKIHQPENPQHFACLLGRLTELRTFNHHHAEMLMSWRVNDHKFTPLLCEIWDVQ
Chain of FXR:RXRa (P19793 whole entry, chain 2 of 2): as the sequence (P19793 whole entry, chain 2 of 2) above
Chain of PXR:RXRa (O75469 whole entry, chain 1 of 2): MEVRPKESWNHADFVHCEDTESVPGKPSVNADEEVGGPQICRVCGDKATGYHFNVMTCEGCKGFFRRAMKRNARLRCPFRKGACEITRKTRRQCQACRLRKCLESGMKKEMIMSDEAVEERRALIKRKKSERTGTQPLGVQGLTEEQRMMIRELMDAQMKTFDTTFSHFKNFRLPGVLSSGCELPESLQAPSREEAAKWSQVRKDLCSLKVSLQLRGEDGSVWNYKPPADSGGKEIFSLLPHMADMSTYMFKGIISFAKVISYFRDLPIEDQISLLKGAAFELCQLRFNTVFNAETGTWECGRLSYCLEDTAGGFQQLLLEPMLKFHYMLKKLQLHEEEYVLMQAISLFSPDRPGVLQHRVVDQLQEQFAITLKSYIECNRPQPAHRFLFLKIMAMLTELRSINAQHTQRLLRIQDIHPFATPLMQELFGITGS
Chain of PXR:RXRa (P19793 whole entry, chain 2 of 2): as the sequence (P19793 whole entry, chain 2 of 2) above
Chain of LXRb:RXRa (P55055 whole entry, chain 1 of 2): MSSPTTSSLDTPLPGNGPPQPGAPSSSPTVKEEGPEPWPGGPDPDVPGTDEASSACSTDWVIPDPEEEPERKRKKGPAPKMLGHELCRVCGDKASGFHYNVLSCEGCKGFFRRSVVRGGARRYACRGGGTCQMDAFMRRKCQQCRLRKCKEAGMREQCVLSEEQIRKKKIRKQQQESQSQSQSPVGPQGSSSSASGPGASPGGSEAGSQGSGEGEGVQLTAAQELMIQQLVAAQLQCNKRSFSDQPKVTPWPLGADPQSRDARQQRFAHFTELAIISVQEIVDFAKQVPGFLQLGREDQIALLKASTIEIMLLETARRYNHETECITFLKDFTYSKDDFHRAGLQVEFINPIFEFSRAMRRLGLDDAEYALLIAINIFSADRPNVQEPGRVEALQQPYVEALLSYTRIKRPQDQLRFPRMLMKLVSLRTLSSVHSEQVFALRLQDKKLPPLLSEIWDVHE
Chain of LXRb:RXRa (P19793 whole entry, chain 2 of 2): as the sequence (P19793 whole entry, chain 2 of 2) above

Row | Binder | binding signal (LXRb:RXRa) | binding signal (RARa:RXRa) | binding signal (RARb:RXRa) | binding signal (PXR:RXRa) | binding signal (RARg:RXRa) | binding signal (RXRa) | binding signal (LXRa:RXRa) | binding signal (PPARa:RXRa) | binding signal (FXR:RXRa) | binding signal (VDR:RXRa)
1 | B1 | 6.1 PBM z-score against 500 random probes | 8.13 PBM z-score against 500 random probes | 5.6 PBM z-score against 500 random probes | 6.52 PBM z-score against 500 random probes | 7.77 PBM z-score against 500 random probes |  |  |  |  | 
2 | B2 | 5.92 PBM z-score against 500 random probes | 7.21 PBM z-score against 500 random probes | 5.75 PBM z-score against 500 random probes |  | 7.74 PBM z-score against 500 random probes | 9.14 PBM z-score against 500 random probes | 6.63 PBM z-score against 500 random probes | 6.97 PBM z-score against 500 random probes | 8.51 PBM z-score against 500 random probes | 
3 | B3 |  | 8.05 PBM z-score against 500 random probes |  | 6.58 PBM z-score against 500 random probes | 7.59 PBM z-score against 500 random probes | 8.57 PBM z-score against 500 random probes |  | 6.48 PBM z-score against 500 random probes | 8.01 PBM z-score against 500 random probes | 6.6 PBM z-score against 500 random probes
4 | B4 |  | 3.03 PBM z-score against 500 random probes |  | 3.09 PBM z-score against 500 random probes |  |  |  |  |  | 
5 | B5 |  | 0.47 PBM z-score against 500 random probes |  | 0.23 PBM z-score against 500 random probes |  |  |  |  |  | 
6 | B6 | 5.92 PBM z-score against 500 random probes | 7.09 PBM z-score against 500 random probes | 6.03 PBM z-score against 500 random probes |  | 7.79 PBM z-score against 500 random probes | 8.9 PBM z-score against 500 random probes | 6.98 PBM z-score against 500 random probes | 6.95 PBM z-score against 500 random probes | 8.53 PBM z-score against 500 random probes | 
7 | B7 |  | 0.29 PBM z-score against 500 random probes |  | 0.22 PBM z-score against 500 random probes |  |  |  |  |  | 
8 | B8 |  | -1.05 PBM z-score against 500 random probes | -1.35 PBM z-score against 500 random probes | -1.09 PBM z-score against 500 random probes |  |  |  |  |  | 
9 | B9 | 5.96 PBM z-score against 500 random probes | 7.56 PBM z-score against 500 random probes |  | 6.46 PBM z-score against 500 random probes |  | 8.69 PBM z-score against 500 random probes |  | 6.56 PBM z-score against 500 random probes | 8.08 PBM z-score against 500 random probes | 
10 | B10 | 7.91 PBM z-score against 500 random probes | 8.32 PBM z-score against 500 random probes |  | 7.78 PBM z-score against 500 random probes | 8.41 PBM z-score against 500 random probes |  |  |  | 8.43 PBM z-score against 500 random probes | 7.26 PBM z-score against 500 random probes
11 | B11 | 6.56 PBM z-score against 500 random probes | 9.1 PBM z-score against 500 random probes | 5.58 PBM z-score against 500 random probes | 6.86 PBM z-score against 500 random probes | 7.9 PBM z-score against 500 random probes |  |  |  | 8.78 PBM z-score against 500 random probes | 
12 | B12 |  | -0.22 PBM z-score against 500 random probes |  | -0.3 PBM z-score against 500 random probes |  |  |  |  |  | 
13 | B13 |  | 7.55 PBM z-score against 500 random probes |  | 6.43 PBM z-score against 500 random probes | 8.13 PBM z-score against 500 random probes |  |  |  |  | 
14 | B14 |  | -0.24 PBM z-score against 500 random probes |  | -0.06 PBM z-score against 500 random probes |  |  |  |  |  | 
15 | B15 | 5.79 PBM z-score against 500 random probes | 7.24 PBM z-score against 500 random probes |  | 6.45 PBM z-score against 500 random probes |  |  |  |  |  | 6.69 PBM z-score against 500 random probes
16 | B16 |  | 7.03 PBM z-score against 500 random probes |  | 6.77 PBM z-score against 500 random probes |  |  |  |  |  | 8.06 PBM z-score against 500 random probes
17 | B17 |  | 7.13 PBM z-score against 500 random probes |  | 6.83 PBM z-score against 500 random probes |  |  |  |  | 7.72 PBM z-score against 500 random probes | 7.93 PBM z-score against 500 random probes
18 | B18 | -0.73 PBM z-score against 500 random probes | -0.46 PBM z-score against 500 random probes |  | -0.47 PBM z-score against 500 random probes |  |  |  |  |  | 
19 | B19 |  | -0.89 PBM z-score against 500 random probes |  | -0.84 PBM z-score against 500 random probes |  |  |  |  |  | 
